The source of these data is a protein production outcome set (Wang et al. 2014).
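Note: failed if final PepcDB status was selected cloned or expressed and not failed if soluble or beyond.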

A short description of the data set: label from the status in PepcDB records.
For “MSFVTTQPEALAAAAANLQGIGTTMNAQNAAAAAPTTGVVPAAADEVSALTAAQFAAHAQMYQTVSAQAAAIHEMFVNTLVASSGSYAATEAANAAAAG”, the protein production result was “failed”.
“MPKTLLIPGLDGSPAAHWQQWWALRDPDALLLDLSDVSRPVPAVWEIEVAGAILQHPGAILVGHSLGAILIARLLAKWPHLKVGGAILVAPAEPRHSDRTESFGPIFEESLGVPAYVVSSRNDPWMSFTQAERLARAWRADVVDLGFAGHINVDSGFGPWPGGVVLRDELARRPVP”: the protein production result is listed as “failed”.
Consider “IRQRKRAERALNDQLEFMRVLIDGTPNPIYVRDKEGRMLLCNDAYLDTFGVTADAVLGKTIPEANVVGDPALAREMHEFLLTRMAAEREPRFEDRDVTLHGRTRHVYQWTVPYGDSLGELKGIIGGWIDIT”, for which the protein production entry is given as “failed”.
The same measure for “MSGKRALITGIRGQDGAYLAKLLLEKGYEVYGADRRSGEFASWRLKELGIENDVKIIHMDLLEFSNIIRTIEKVQPDEVYNLAAQSFVGVSFEQPILTAEVDAIGVLRILEALRTVKPDTKFYQASTSEMFGKVQEIPQTEKTPFYPRSPYAVAKLFGHWITVNYREAYNMFACSGILFNHESPLRGIEFVTRKITYSLARIKYGLQDKLVLGNLNAKRDWGYAPEYVEAMWLMMQQPEPDDYVIATGETHTVREFVEKAAKIAGFDIEWVGEGINEKGIDRNTGKVIVEVSEEFFRPAEVDILVGNPEKAMKKLGWKPRTTFDELVEIMMEADLKRVRDREVSV”: “not failed”; for “MDGLHVSIVSVALFIILFVIFVFLGFYGSRWRRGDLSKLHEWALAGRRLGPYLMWFLLTADLYTAYTFIAVPSLVLASGPVGFFAAFYSAVTPFIALLFMPRLWTIAKNRGYVTAADFIKDRFNSRILAGLVAITGVVAELPYIALQIVGMQVALLILLLGLGVSNITLASDLSLLVAFIILAAFVFTSGLRGAALTAVYKDIIILGTIISIAIYVPLAFGGFSGAFHNAQTLSSQINLALNNVNKPIFYNYLPNTLAARTAYISLAIGSAFALYLYPHAVNASVSSDSKKSLKLSLALQPFYSIILAVIALFGILVYANSKVVNFIAKTHSGAVAVPALIGYSMPDWFVGIALLGIFIGGLVPAAIMAIGAANLLTRNIIKEFKPNMSPSTESALAKWISTAFKFLALALVFATPSTYAIQLQLLGGIIILQTLPSVFLGLYTSKLNGYALVGGWAGGMFSGIYLTLLANHFGPLKTSSFITPLGPMYIGVLSTLINLAIGLIGTAIAYGAGWRPVSNIRAEEIA”: “failed”.
Turning to “MQRQNKQQEDSFMIPETSYDIVVVGAGPAGSTAALYAAKKGASVLLLDKKREIGSPIQCAGFLPDASEVKALLPEADLPGALKNYPDSCVLQPIRTQRIIPPNCNAKEFAVKGAVLDRRRYDQYLAEQAAEAGAELMVKTRVTKIQGTTVETSGIFGKHTIRAKAIIGADGPNSLVAKSRGLIMKPEARETSVAIEYQVRNVDIDPDALEMYFGKDYVPGGYAWVFPEGKDRANVGIGIRSCMAEKGVSAKEYLHRFIKKHPVAGPKLKNAVIMNVIAGIIPVNGAPANTATADSLVVGDAAGHIIATNGGGIPPAMIAGKIAGETAAEFAAGKCDLEEYDRRWRAQFGQALETSVQARQIMDGIMKSDALMNAAFRFISPEQMKVMQCGKLPGPVKLGLQALSRGKK”, the protein production entry is “failed”.
On to “MAVECIKDKVTRYPERASYSDEDLVAMLDRNFTCTVSFIDGGIPYAIPMMLASEGKTIYLHGSMKSRIYGILKTGQLIAISLLEINGIVLAKEIKNNSINYVSALIFGRPYEIDDTEKKIEVFRLLTEKLVKGRRDNSIKPSYEDLNGVFVFAVKPETFSMKARTGPPHDTSTDDIWSGVLPIQHTISEAGENAPEYVKSLYGKRIFI”, for which the protein production entry is “not failed”.
As for “MALVRSLFVSNKILGGSLAGMRKSTSAPKGFLAVYVGESQKKQRYLVLVSYLSQPLFQDLLSKSEEEFGFDHPMGGLTIPCPEDTFLTVTSRIQG”, the protein production result is recorded as “failed”.
As for “MKDIIRFILRLVQNPIVLAILWFGVAIRGFWVSWTEGLANNYLIFSRSFFHALEQTPLYVEYPKEYFDLFLYGIPFTLLIAPFSIMPTMVGSALWSLCNALLLYFAIKKLEFEKWKTAIIVWLSYNGLYLSVVTQQYNAAVAAFILFTFILVERKKDFWAALMIVLGTLTKIYGIVGLAFFLFSKRKLYFLWGILFWAFVLFVVPMFYTSPQYVFDSYKEWVSILVVKNDVNELSFYQNISLLGMVRKITHAVEYSDMWLIIPGIVLFLLPYLRIGQYENRNFRLSFLASVLLFMVLFSTGTEECGYVGALIGVGIWYVSTPTYKKSFVLNTCLLLFCFALTAASSSSILFSKHFRTEYITSFALKALPCAIIWFKIIWEQLTQDYTSRTPTPFLHKKDDERIDVILPCYNPHEGWEQQLIEKHKELEGMLNGYNIRFIVVNDGSKRGFTEEAVLRLTNNLPNTIIVDNKINQGKGAAVRDGIAHSDSELALYTDYDFPYKIESVCQVIKYLEEGYDVVVANRNHTYYSQLSTRRKLASHASRFLNFMLLGLTHTDTQGGLKGFNCKGKAFLASTRIKQFLFDTEFIYKASLDDTTFIKEVPVDLRGEVMLPDMKKGVFVNELKNLLMICWRG”, the protein production result is “failed”.
“MKTAELIFVPLPETGHLLSTIEFGKRLLNLDRRISMITILSMNLPYAPHADASLASLTASEPGIRIISLPEIHDPPPIKLLDTSSETYILDFIHKNIPCLRKTIQDLVSSSSSSGGGSSHVAGLILDFFCVGLIDIGREVNLPSYIFMTSNFGFLGVLQYLPERQRLTPSEFDESSGEEELHIPAFVNRVPAKVLPPGVFDKLSYGSLVKIGERLHEAKGILVNSFTQVEPYAAEHFSQGRDYPHVYPVGPVLNLTGRTNPGLASAQYKEMMKWLDEQPDSSVLFLCFGSMGVFPAPQITEIAHALELIGCRFIWAIRTNMAGDGDPQEPLPEGFVDRTMGRGIVCSWAPQVDILAHKATGGFVSHCGWNSVQESLWYGVPIATWPMYAEQQLNAFEMVKELGLAVEIRLDYVADGDRVTLEIVSADEIATAVRSLMDSDNPVRKKVIEKSSVARKAVGDGGSSTVATCNFIKDILGDHF”: the protein production entry is listed as “failed”.
As for “MKFVKASLYLSIALAISACGEQVSVESHLENAKSYLNENKVNESIIELKNAIRADTKNAEARFLLGQIYLSLGDGLAAVKELERAQSLKYPDNKVLPLLARAYILTDSDSDVIALSTAAKGLAAEERSQYLAYQTLAALRSEQPDLAKQSVELAQSIAQQSLYSMLASAYLQLSENKYDEVKTLISRILTIEAKQVDALMLQGQVAMVTEEYQLAVDSFKQYMELQPRFSMVELLLANALLKAGHDEEAEQHADAILAKVNNQPFANYIKAMVRFQAKDFDKASEHAEAALSADFNQFNLKLVAGASAFYLKNWQQSYHHLSAIVKYLPNDHQARRMLAVTQLELGLIDEISATIGDFDGNDEVNSQFLSSLSYKLLELGATTEAKKLLAQNGQNSSKNAAHNARQGILKLMMNDPSGIENLQDAVKLNPELIEAELAIAFSALQRGDIAKANAIAEKWQKQYPDKASSFNLLASIAIKEGKYDKAEQALKKSLSLEQDNFFALTEQLRIARKQENIPLSKQRADYLITIAPTNNKVLRQYFGVYRNEMALAKLTAAYELDKTDINKAILLSEAMVSLGQLKQAESILVSIADTAKLPKRYWQLLLLTYKKQKNFEKIRPTLEKWLKENPYHIEAVVLLTDFYASQRNYERALTVIKRGLDNHKDNLVLQLVQMQLLLNNKQISPAKSLYKIIENKNINDALKQGLLGRIYLLEEDYVQALPKLTVFYQTYPSSQNAIYLAGAHLGNKDNAKAVKVLEHYLTIDANNNRIETMLAGIYLENDSDKAIAVYDDVVKKQPKNVVAHNNLAWLYLEQDNISKALEHAEKALELAPQIANIVDTYAKVLLGSGDKRAALQYASKASEIAKGKDVDIQLNYVEALIANNRINEAKDLLAKVATATDEQKNKKSKLLAQL”, the protein production result was “failed”.
Regarding “MQTVQALLTAAKVDGAKSPYDTIHIKVLYPAKNTDSNLEKSWGMLPIDTAQAPLPVMIFFNGFNCDAQKYQWLGIELAQTGLVVVMFNWVGESLPGLVSFTPGFEIEKRKREFYGTAPTASALPAILTTLAQLQREGILAGTLDLEKIILGGHSEGGRVAMENANPNFFPQVVASFAYGSHTAGAVMLGYKPNTILPLPDTLPRLVIGGTHDGVIASSSSHFGLNTKDATTPVIRTFQEAIMGGHENSYLLILRGANHFSIVDIVDSTLALPFKDIPATQPQEHFRLLLATIIHLFIDAHVRHQPEAFQKLEQL”, the protein production result is recorded as “failed”.
The entry for “MKKFVTLLLCMLPVSLFAQVNDGIRQAMDNYDYETVVTLIEPDCQDSLLLITKAQALKAMNRYPEAIGVLNSLILKDSTNTKVLIDLAECYKLTGNSRRAANCYQKAMNLQPENKFFRLQFIRSLLASEDYEEARTACHGWLERDSLSATGYKYLGQAYEGLQDAASAFLSYNIAYRRDSLDAQTVARIAGIFNNNQQFKDAVDVTEVYRLSDTTNIDVNRQNAKAYCMLKEYGTAVKRYESLKELGDRSFLTLYYLGVSHYGDNWFYGAYDNLKEAYQKNPMDVNVLYYLAKASARTSWKKEGVEYMEEAFRIAVPSDSMMVRLYDGLVECYDYAGDTKKEVEALEKLYIYTKKNSILYKIACLYDWKEDEKNAIRYYRKYMATVSEDQRYALDEDGNPVEDRITLYQQAWKRIKKIKEEGFFRGDIPTKSFPVEKKDTLALRHAK” is “failed”; for “MTIAFLVLVVALASGFAFLNGFRDVSNAVALSTRTRALTPSIAVLLAAIFNFVGAMLSGTFILAFTQSWITLPEGTSGLTMLASALTAAILWGVYAWWRGIPLSSTNSLIGGLIGAGAASVLVGGNAVGGMDNVLLTQVALPLVLSPVIAFVAAYLLVWPVTWAARYTQPNVVNRRFRRAQAISTAAVAFGHGLQDGQRTAAVMVLAMVAAGLSSGSDVPLWILLVTAIMLTAGTMFGGWRISHTLGHKLIRVDPLRGFVAQTLTSVMLFIGAIGFHLPLSTTHTLTAAVLGSGVNQRFHTVNRRLVRRVLLFWVATPLITAAAAFILELAFSPLADL” it is “failed”.
Regarding “MRINTRRKKWAAVAVVTLVSVIASVIVTVIVVGTLDPQSLRPAIIVPLLVAPLATHWGAERLLEIDKLNQQLAHLNRIDQMTQLYNRACLLEKLEQEPEEAGMILIADIDHFKQINDTYGHDVGDLVIIEVARVLQRSSLPEGIAARFGGEEFVIYVPRLDLEAAEFRAEAIRQAVEAQSVMIDGRKLSCTISIGIEIRQMQENVGDVLKRADEALYRAKAQGRNQVVAARRLARAGKSRETAQARRAP”, the protein production entry is listed as “failed”.
The entry for “MCQESVIVMQATQPLQTVSQAVPKEFLQADGGFNPNVAMFGIAILLMLANVFGYWQWGLPHWLCFSCSVLALHLSGTVIHDASHNAAHRNTIINAVLGHGSALMLGFAFPVFTRVHLQHHANVNDPENDPDHFVSTGGPLFLIAARFFYHEIFFFKRRLWRKYELLEWFLSRLVLFTIVFLGIHYGFIGFVMNYWFVPALIVGIALGLFFDYLPHRPFQERNRWKNARVYPSPILNWLIFGQNYHLIHHLWPSIPWYQYQNTYHITKPILDEKGCDQSLGLLEGKNFWSFLYDVFLGIRFHGHNNSQSSDKP” is “failed”.
Regarding “MSLRTKGNAELILQIDAYLPDTYISDQRHKIEIYKKIRQIDNRVNYEELQEELIDRFGEYPDVVAYLLEIGLVKSYLDKVFVQRVERKDNKITIQFEKVTQRLFLAQDYFKALSVTNLKAGIAENKGLMELVFDVQNKKDYEILEGLLIFGESLLEIKESKEKNSEGHHHHHH”, the protein production entry is “not failed”.
In the case of “MKKTFNLVATAAAGIEAVVGKELRNLGLDCQVENGRVLFKGNIETIAKSNLWLRSADRIKIVVGEFPARTFEELFQGVYALDWENYLPLGCQFPVAKAKSVKSKLHNEPSIQGITKKAIVKKLQHYFHRPDSVPLPENGPEFKIEISLLKDQARVMIDTTGPSLFKRGYRTEKGGAPIKENMAAAIILLSNWFPDKPFVDPTCGSGTFCIEAAMIGMNIAPGFNRDFAFEEWPWVDEALVTRVRNEADEQADYDIQLDISGFDFDGRMVEIARKNAREVGLEDVVKLKQMRLQDFKTNKINGVLISNPPYGERLLDDKAVDILYNEMGETFAPLKTWSQFILTNDTDFEQKFGRKADKKRKLYNGSLKVDLYQFYGQRVKRVLR”, the protein production result is reported as “not failed”.
